Measured values from patent US20240075096A1, “ANTIMICROBIAL PEPTIDE LIQUID COMPOSITION AND FORMULATION THEREOF” (priority 2021, published 2024).
Converted amounts (≈) assume the structure as drawn.

How the values were obtained:
[1] = system: Staphylococcus aureus ATCC29213; test: In vitro bacteriostatic and bactericidal tests (MIC, MBC); format: cell-based; conditions: standard strain ATCC29213
[2] = system: methicillin-resistant Staphylococcus aureus (MRSA) clinical isolates; test: as above; format: cell-based; conditions: MRSA clinical strains
[3] = system: Methicillin-sensitive Staphylococcus aureus (MSSA) clinical isolates; test: as above; format: cell-based; conditions: MSSA clinical strains
[4] = system: Methicillin-resistant coagulase-negative Staphylococcus (MRSCNS) clinical isolates; test: as above; format: cell-based; conditions: MRSCNS clinical strains
[5] = system: Methicillin-sensitive coagulase-negative Staphylococcus (MSSCNS) clinical isolates; test: as above; format: cell-based; conditions: MSSCNS clinical strains
[6] = Stability investigation of antimicrobial peptide compositions (trait, related substances and content by HPLC); format: physicochemical
[7] = 4° C., 0 days, peptide 2‰, stabilizer 1% (Table 2)
[8] = 4° C., 6 months, peptide 2‰, stabilizer 1% (Table 2)
[9] = 4° C., 12 months, peptide 2‰, stabilizer 1% (Table 2)
[10] = 4° C., 24 months, peptide 2‰, stabilizer 1% (Table 2)
[11] = 4° C., 36 months, peptide 2‰, stabilizer 1% (Table 2)
[12] = 25° C., 0 days, different mannitol systems (Table 3)
[13] = 25° C., 0 days, peptide 2‰, stabilizer 1% (Table 1)
[14] = 25° C., 1 month, peptide 2‰, stabilizer 1% (Table 1)
[15] = 25° C., 3 months, different mannitol systems (Table 3)
[16] = 25° C., 3 months, peptide 2‰, stabilizer 1% (Table 1)
[17] = 25° C., 6 months, different mannitol systems (Table 3)
[18] = 25° C., 6 months, peptide 2‰, stabilizer 1% (Table 1)

CN[C@H](CC(C)C)C(=O)N[C@H]1C(=O)N[C@@H](CC(N)=O)C(=O)N[C@H]2C(=O)N[C@H]3C(=O)N[C@H](C(=O)N[C@H](C(=O)O)c4cc(O)cc(O)c4-c4cc3ccc4O)[C@H](O)c3ccc(c(Cl)c3)Oc3cc2cc(c3O[C@@H]2O[C@H](CO)[C@@H](O)[C@H](O)[C@H]2O[C@H]2C[C@](C)(N)[C@H](O)[C@H](C)O2)Oc2ccc(cc2Cl)[C@H]1O [Vancomycin, vancomycin]
MBC Concentration Range [1]: 4 µg/mL (≈ 2.76 µM) | MIC Concentration Range [1]: 1 µg/mL (≈ 0.69 µM) | MIC Concentration Range [2]: 0.5 to 4 µg/mL | MIC Concentration Range [3]: 0.5 to 4 µg/mL | MIC Concentration Range [4]: 0.5 to 4 µg/mL | MIC Concentration Range [5]: 0.5 to 4 µg/mL

KWKSFLKTFKSAAKTVLHTALKAISS [antimicrobial peptide, tested alone as aqueous solution without stabilizer]
Content [6, 7]: 99.87% | Largest Single Impurity (Related Substance) [6, 7]: 0.19% | Total Impurities (Related Substance) [6, 7]: 0.32% | Trait [6, 7]: colorless clear liquid | Content [6, 8]: 97.51% | Largest Single Impurity (Related Substance) [6, 8]: 0.27% | Total Impurities (Related Substance) [6, 8]: 0.58% | Trait [6, 8]: colorless transparent | Content [6, 9]: 94.51% | Largest Single Impurity (Related Substance) [6, 9]: 0.32% | Total Impurities (Related Substance) [6, 9]: 0.68% | Trait [6, 9]: colorless transparent | Content [6, 10]: 85.57% | Largest Single Impurity (Related Substance) [6, 10]: 0.72% | Total Impurities (Related Substance) [6, 10]: 2.01% | Trait [6, 10]: colorless transparent | Content [6, 11]: 76.55% | Largest Single Impurity (Related Substance) [6, 11]: 0.96% | Total Impurities (Related Substance) [6, 11]: 3.02% | Trait [6, 11]: colorless transparent | Content [6, 12]: 100.12% | Largest Single Impurity (Related Substance) [6, 12]: 0.16% | Total Impurities (Related Substance) [6, 12]: 0.30% | Trait [6, 12]: colorless | Content [6, 13]: 99.87% | Largest Single Impurity (Related Substance) [6, 13]: 0.19% | Total Impurities (Related Substance) [6, 13]: 0.32% | Trait [6, 13]: colorless clear liquid | Content [6, 14]: 98.51% | Largest Single Impurity (Related Substance) [6, 14]: 0.25% | Total Impurities (Related Substance) [6, 14]: 0.53% | Trait [6, 14]: colorless transparent | Content [6, 15]: 98.42% | Largest Single Impurity (Related Substance) [6, 15]: 0.26% | Total Impurities (Related Substance) [6, 15]: 0.55% | Trait [6, 15]: colorless | Content [6, 16]: 88.57% | Largest Single Impurity (Related Substance) [6, 16]: 0.68% | Total Impurities (Related Substance) [6, 16]: 1.96% | Trait [6, 16]: colorless transparent | Content [6, 17]: 87.67% | Largest Single Impurity (Related Substance) [6, 17]: 0.85% | Total Impurities (Related Substance) [6, 17]: 1.99% | Trait [6, 17]: colorless | Content [6, 18]: 78.88% | Largest Single Impurity (Related Substance) [6, 18]: 0.98% | Total Impurities (Related Substance) [6, 18]: 3.16% | Trait [6, 18]: colorless transparent
